Assay [1] concerns the target T1, recombinant human fibroblast activation protein (human, UniProt Q12884 39-757, biotin (EZ-link NHS-PEG4-biotin)).
T1 construct: also called hFAP; human FAP; source: bought: Acro Biosystems
T1 sequence: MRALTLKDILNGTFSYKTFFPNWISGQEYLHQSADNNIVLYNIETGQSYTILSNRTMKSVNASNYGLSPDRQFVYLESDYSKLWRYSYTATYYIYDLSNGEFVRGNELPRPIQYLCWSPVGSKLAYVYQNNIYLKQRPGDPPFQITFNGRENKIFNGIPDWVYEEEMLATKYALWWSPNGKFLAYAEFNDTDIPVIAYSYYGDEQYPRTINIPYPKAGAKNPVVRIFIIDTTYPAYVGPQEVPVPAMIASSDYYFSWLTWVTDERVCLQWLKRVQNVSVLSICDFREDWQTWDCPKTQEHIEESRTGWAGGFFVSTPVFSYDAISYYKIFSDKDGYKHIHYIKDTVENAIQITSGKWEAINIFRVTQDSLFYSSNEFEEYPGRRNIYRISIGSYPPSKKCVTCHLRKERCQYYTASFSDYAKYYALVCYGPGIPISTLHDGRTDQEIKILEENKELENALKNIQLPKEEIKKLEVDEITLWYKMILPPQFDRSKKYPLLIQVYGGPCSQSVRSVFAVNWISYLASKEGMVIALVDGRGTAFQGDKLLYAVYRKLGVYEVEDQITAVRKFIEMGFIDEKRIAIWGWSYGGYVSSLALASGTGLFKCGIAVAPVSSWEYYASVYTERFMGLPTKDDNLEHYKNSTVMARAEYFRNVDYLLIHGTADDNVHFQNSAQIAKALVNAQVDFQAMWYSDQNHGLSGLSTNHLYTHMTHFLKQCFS
Description: BLI; biotinylated bait protein (30 nM) loaded on Octet streptavidin (SAX) biosensors; serially diluted VNAR-Fc (300-0.412 nM) as analyte; PBS with 1% BSA; kinetic analysis with a bivalent analyte model. Particulars: both partners purified. A general note: In BLI a coated tip is dipped into the sample, and binding shifts an interference pattern.

The target of assay [2] is T2, FAP on CWR-R1^FAP cells (human, UniProt Q12884 1-760).
T2 construct: also called CWR-R1-EnzR^FAP
T2 sequence (looked up): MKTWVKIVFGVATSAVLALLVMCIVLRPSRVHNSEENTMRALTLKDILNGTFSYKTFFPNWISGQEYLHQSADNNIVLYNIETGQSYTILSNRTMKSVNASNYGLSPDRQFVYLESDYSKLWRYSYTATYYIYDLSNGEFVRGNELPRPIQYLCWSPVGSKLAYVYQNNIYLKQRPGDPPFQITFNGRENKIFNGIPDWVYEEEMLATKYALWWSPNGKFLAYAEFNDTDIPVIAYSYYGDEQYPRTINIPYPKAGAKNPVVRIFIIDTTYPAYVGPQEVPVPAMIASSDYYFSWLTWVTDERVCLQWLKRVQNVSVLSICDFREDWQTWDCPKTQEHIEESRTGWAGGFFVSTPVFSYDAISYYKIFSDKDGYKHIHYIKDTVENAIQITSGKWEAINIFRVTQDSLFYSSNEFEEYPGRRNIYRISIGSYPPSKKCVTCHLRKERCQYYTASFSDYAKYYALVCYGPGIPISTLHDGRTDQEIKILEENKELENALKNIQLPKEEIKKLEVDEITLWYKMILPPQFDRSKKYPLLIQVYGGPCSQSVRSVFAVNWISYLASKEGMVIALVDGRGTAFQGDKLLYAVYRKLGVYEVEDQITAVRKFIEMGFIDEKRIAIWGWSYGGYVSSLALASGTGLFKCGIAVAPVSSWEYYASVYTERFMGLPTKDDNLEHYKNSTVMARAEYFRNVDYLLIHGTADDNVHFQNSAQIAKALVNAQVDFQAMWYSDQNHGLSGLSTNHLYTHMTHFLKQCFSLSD
Description: flow cytometry on cells; cells incubated with VNAR-Fc (several concentrations, or fixed 100 nM) 1 h on ice, detected with PE-labeled anti-human IgG Fc; KD from logistic fitting of mean fluorescence intensity. Particulars: one partner purified. A general note: Flow cytometry measures light scatter and fluorescence of single cells or particles in a stream.

The target of assay [3] is T3, FAP on hPrCSC-44 cells (human (endogenous in hPrCSC-44), UniProt Q12884 1-760).
T3 construct: also called endogenous FAP; source: endogenous, hPrCSC-44 immortalized cancer-associated fibroblast cells, on cells
T3 sequence (looked up): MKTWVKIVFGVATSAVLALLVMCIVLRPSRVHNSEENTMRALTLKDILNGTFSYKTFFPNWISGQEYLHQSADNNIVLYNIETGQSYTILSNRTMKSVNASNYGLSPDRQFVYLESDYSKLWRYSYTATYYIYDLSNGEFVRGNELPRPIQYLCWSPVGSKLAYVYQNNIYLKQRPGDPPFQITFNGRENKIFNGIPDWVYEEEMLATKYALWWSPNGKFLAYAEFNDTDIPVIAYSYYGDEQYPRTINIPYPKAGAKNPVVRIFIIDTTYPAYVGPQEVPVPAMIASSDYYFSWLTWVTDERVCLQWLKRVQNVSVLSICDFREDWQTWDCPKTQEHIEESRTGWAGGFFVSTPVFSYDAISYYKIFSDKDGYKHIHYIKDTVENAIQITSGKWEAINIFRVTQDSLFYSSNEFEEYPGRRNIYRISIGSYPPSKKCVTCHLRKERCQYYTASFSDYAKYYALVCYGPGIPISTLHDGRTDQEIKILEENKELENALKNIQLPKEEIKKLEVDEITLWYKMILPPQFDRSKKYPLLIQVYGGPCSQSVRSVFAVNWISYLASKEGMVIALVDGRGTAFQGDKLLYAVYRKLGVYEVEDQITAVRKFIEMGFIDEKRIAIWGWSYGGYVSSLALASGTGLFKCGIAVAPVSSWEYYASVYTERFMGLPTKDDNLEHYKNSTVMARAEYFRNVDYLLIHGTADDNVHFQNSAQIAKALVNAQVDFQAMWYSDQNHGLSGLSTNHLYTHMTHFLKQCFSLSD
The description is as above. Particulars: one partner purified.

B1: NGS2405-Fc (Fc fusion, nurse shark (Ginglymostoma cirratum))
chain: ARVDQTPQTITKETGESLTINCVLRDSNCALSFTYWYRKKSGSTNEESISKGGRYVETVNSGSKSFSLRINDLTVEDSGTYRCNVYVGGGCPHWIDVYGDGTAVTVN
notes: Bivalent human IgG1 Fc fusion (vector TGEX-SCblue); also called VNAR-Fc; source: ExpiCHO-S, transfected, purified (protein A, SEC)
For B1, the results for the Kd in assay [1], in assay [2] and in assay [3] were 0.356 nM, 8.44 nM and 6.03 nM, respectively.

B2: H4-Fc (Fc fusion, nurse shark (Ginglymostoma cirratum))
chain: ARVDQTPQTITKETGESLTINCVLRDSNCALSSTYWYRKKSGSTNEESISKGGRYVETVNSGSKSFSLRINDLTVEDSGTYRCNVYVAGMSPCLSWGDVYGDGTAVTVN
notes: Bivalent human IgG1 Fc fusion (vector TGEX-SCblue); also called anti-FAP VNAR H4; VNAR-Fc; source: ExpiCHO-S, transfected, purified (protein A, SEC)
For the molecule B2, the Kd in assay [1] amounted to 0.0141 nM; in assay [2], 12 nM; in assay [3], 15.6 nM.

The values above are taken from PMC12350670, “The characterization of variable new antigen receptors targeting FAP isolated from a novel immunized library” (Communications Biology, 2025).
